Reference: patent publication US20140057284A1, “PHOTOLUMINESCENT MOLECULAR COMPLEX AND METHOD FOR DETERMINING OF THE CONCENTRATION OF SAID MOLECULAR COMPLEX” (priority 2011, published 2014)

Assays:
Test in all cases: biochemical
Details in all cases: read-out: Percentages of residual activities of the kinase reaction
Src = Src (Homo sapiens, UniProt P12931)
Method: (§1) Selectivity testing (Table 2) was performed on the commercial basis at the Division of Signal Transduction Therapy, University of Dundee. ATP concentrations that were used in testing were close to the Km value of the kinase.

ZAP70 = ZAP70 (Homo sapiens, UniProt P43403)
ZAP70, sequence (P43403 whole entry, species assumed): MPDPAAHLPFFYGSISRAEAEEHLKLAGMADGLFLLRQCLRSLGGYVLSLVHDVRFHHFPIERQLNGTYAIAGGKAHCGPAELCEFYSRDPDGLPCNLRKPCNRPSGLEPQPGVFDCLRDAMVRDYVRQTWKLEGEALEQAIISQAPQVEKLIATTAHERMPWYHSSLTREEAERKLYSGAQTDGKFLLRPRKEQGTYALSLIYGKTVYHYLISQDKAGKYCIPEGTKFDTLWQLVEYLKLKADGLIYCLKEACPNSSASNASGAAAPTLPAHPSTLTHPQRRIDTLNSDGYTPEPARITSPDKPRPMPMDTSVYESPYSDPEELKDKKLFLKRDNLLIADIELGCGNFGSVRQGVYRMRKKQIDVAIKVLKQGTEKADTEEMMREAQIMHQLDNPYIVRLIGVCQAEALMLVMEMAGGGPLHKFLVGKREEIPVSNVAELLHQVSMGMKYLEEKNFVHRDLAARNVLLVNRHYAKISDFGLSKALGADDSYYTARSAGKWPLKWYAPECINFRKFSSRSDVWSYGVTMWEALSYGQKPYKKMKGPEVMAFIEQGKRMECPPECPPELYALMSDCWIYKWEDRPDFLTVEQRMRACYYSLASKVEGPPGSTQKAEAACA
Method: as §1

RSK1 = RSK1 (Homo sapiens, UniProt Q15418)
Method: as §1

PAK6 = PAK6 (Homo sapiens, UniProt Q9NQU5)
Method: as §1

MKK1 = MKK1 (Homo sapiens, UniProt Q02750)
Method: as §1

TAK1 = TAK1 (Homo sapiens, UniProt O43318)
TAK1, sequence (O43318 1-303 limits assumed): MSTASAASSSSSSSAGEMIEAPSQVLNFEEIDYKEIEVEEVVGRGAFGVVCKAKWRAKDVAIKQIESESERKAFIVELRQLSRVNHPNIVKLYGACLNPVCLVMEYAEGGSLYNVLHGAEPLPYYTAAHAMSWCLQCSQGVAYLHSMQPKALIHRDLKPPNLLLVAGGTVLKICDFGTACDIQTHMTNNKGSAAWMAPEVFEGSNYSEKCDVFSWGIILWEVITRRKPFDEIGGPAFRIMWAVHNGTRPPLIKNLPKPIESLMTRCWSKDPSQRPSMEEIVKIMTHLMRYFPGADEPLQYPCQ
TAK1, sequence (Q15750 437-504 partner limits assumed): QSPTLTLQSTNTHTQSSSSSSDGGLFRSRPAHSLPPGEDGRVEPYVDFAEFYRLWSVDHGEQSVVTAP
Method: as §1

PKD1 = PKD1 (Homo sapiens, UniProt Q15139)
Method: as §1

ERK1 = ERK1 (Homo sapiens, UniProt P27361)
Method: as §1

JNK2 = JNK2 (Homo sapiens, UniProt P45984)
JNK2, sequence (P45984 whole entry, species assumed): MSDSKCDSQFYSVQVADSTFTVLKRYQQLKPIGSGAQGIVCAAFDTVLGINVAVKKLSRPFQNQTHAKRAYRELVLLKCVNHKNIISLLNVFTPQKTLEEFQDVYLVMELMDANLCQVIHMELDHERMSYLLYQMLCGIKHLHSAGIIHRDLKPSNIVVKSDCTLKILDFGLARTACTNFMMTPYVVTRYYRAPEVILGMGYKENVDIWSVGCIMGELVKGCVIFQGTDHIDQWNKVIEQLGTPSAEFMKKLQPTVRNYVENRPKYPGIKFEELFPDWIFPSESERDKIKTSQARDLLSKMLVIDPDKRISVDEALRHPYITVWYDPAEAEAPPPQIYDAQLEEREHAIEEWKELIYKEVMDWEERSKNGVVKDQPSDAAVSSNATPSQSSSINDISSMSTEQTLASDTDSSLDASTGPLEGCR
Method: as §1

TBK1 = TBK1 (Homo sapiens, UniProt Q9UHD2)
Method: as §1

PAK5 = PAK5 (Homo sapiens, UniProt Q9P286)
Method: as §1

PKBb = PKBb (Homo sapiens, UniProt P31751)
Method: as §1

MNK1 = MNK1 (Homo sapiens, UniProt Q9BUB5)
Method: as §1

MARK4 = MARK4 (Homo sapiens, UniProt Q96L34)
Method: as §1

MARK2 = MARK2 (Homo sapiens, UniProt Q7KZI7)
MARK2, sequence (Q7KZI7 whole entry, species assumed): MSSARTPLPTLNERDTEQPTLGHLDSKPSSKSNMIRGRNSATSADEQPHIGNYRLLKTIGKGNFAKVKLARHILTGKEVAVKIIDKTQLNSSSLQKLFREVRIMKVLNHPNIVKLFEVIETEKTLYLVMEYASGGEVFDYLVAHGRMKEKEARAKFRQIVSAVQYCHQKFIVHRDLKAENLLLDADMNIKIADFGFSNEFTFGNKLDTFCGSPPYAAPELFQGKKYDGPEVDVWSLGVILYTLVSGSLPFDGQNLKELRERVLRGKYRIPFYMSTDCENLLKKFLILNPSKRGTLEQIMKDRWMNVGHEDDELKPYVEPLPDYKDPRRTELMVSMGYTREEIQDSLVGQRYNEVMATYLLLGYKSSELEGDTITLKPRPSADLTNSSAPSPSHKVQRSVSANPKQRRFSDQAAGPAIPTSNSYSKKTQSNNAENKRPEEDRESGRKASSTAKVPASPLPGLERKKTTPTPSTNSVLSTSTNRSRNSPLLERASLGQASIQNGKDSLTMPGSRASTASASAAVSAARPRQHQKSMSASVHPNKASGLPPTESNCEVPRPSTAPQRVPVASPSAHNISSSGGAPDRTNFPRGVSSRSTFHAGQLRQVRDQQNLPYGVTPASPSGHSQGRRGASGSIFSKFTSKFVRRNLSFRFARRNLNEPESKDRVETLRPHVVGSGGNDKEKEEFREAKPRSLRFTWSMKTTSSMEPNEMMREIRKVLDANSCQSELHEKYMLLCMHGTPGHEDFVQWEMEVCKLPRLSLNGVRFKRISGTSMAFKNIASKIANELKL
Method: as §1

GSK3b = GSK3b (Homo sapiens, UniProt P49841)
GSK3b, sequence (P49841 whole entry): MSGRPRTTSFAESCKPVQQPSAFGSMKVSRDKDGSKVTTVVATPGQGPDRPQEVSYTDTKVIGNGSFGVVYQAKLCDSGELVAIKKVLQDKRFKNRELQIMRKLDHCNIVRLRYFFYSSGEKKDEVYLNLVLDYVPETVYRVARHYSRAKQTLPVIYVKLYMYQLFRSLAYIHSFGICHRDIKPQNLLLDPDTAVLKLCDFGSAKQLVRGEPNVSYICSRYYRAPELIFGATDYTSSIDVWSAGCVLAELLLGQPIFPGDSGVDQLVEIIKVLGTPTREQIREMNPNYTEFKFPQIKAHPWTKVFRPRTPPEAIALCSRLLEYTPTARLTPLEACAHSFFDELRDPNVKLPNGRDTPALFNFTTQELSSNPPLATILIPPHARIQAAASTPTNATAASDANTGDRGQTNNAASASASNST
Method: as §1

CAMK1 = CAMK1 (Homo sapiens, UniProt Q14012)
Method: as §1

IR = IR (Homo sapiens, UniProt P06213)
Method: as §1

PKA = PKA (Homo sapiens, UniProt P17612)
Method: as §1

PIM2 = PIM2 (Homo sapiens, UniProt Q9P1W9)
Method: as §1

SRPK1 = SRPK1 (Homo sapiens, UniProt Q96SB4)
Method: as §1

S6K1 = S6K1 (Homo sapiens, UniProt P23443)
Method: as §1

CHK2 = CHK2 (Homo sapiens, UniProt O96017)
Method: as §1

CSK = CSK (Homo sapiens, UniProt P41240)
Method: as §1

MLK3 = MLK3 (Homo sapiens, UniProt Q16584)
Method: as §1

BTK = BTK (Homo sapiens, UniProt Q06187)
Method: as §1

Aurora A = Aurora A (Homo sapiens, UniProt O14965)
Aurora A, sequence (O14965 whole entry): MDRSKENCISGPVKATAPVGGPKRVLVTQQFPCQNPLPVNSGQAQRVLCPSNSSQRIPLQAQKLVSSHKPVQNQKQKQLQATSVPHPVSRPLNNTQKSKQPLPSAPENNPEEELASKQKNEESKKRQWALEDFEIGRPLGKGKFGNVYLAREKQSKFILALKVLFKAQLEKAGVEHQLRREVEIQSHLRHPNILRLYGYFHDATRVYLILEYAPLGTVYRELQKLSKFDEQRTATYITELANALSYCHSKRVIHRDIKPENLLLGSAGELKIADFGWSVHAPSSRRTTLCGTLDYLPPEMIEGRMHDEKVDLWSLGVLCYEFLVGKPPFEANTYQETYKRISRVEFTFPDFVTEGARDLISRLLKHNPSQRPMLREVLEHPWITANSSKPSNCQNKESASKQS
Method: as §1

Aurora B = Aurora B (Homo sapiens, UniProt Q96GD4)
Aurora B, sequence (Q96GD4 whole entry): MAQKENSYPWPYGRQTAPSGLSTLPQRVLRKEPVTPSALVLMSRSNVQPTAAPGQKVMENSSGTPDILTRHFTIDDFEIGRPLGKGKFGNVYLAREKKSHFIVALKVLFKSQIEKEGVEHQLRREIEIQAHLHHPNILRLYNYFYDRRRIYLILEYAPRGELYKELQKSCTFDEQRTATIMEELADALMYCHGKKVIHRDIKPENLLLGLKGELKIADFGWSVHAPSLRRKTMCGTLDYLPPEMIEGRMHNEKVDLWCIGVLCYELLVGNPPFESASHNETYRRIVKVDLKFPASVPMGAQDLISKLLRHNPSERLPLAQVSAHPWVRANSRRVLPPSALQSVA
Method: as §1

CDK2-Cyclin A = CDK2-Cyclin A (Homo sapiens, UniProt P24941)
Method: as §1

SGK1 = SGK1 (Homo sapiens, UniProt O00141)
SGK1, sequence (O00141 whole entry, species assumed): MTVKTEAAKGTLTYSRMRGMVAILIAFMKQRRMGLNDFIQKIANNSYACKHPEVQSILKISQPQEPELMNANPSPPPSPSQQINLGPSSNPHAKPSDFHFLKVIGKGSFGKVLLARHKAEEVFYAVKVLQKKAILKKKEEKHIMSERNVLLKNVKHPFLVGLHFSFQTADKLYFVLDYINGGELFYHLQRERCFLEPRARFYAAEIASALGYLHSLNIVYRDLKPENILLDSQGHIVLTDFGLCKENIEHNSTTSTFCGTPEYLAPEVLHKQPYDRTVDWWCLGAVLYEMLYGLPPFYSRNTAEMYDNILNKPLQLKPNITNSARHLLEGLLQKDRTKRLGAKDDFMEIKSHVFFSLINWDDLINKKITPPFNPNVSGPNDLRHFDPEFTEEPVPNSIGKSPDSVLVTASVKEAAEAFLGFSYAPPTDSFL
Method: as §1

PAK4 = PAK4 (Homo sapiens, UniProt O96013)
Method: as §1

DYRK1A = DYRK1A (Homo sapiens, UniProt Q13627)
Method: as §1

IRAK4 = IRAK4 (Homo sapiens, UniProt Q9NWZ3)
Method: as §1

BRSK2 = BRSK2 (Homo sapiens, UniProt Q8IWQ3)
Method: as §1

MST2 = MST2 (Homo sapiens, UniProt Q13188)
MST2, sequence (Q13188 whole entry, species assumed): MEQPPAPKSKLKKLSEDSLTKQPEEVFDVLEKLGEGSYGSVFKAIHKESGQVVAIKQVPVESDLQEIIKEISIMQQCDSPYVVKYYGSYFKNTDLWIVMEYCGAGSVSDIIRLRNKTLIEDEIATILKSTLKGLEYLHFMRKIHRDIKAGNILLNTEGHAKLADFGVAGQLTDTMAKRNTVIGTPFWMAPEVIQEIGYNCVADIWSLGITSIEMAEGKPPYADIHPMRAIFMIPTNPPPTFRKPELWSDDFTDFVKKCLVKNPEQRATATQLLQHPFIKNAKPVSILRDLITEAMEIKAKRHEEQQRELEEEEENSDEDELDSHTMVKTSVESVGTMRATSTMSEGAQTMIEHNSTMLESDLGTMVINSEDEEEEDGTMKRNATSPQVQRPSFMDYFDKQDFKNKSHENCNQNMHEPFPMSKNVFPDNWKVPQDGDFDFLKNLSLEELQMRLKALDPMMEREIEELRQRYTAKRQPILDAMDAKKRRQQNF
Method: as §1

ASK1 = ASK1 (Homo sapiens, UniProt Q99683)
Method: as §1

IRR = IRR (Homo sapiens, UniProt P14616)
Method: as §1

IKKe = IKKe (Homo sapiens, UniProt Q14164)
Method: as §1

PKBa = PKBa (Homo sapiens, UniProt P31749)
Method: as §1

MNK2 = MNK2 (Homo sapiens, UniProt Q9HBH9)
Method: as §1

PKCγ = PKCγ (Homo sapiens, UniProt P05129)
Method: as §1

RIPK2 = RIPK2 (Homo sapiens, UniProt O43353)
Method: as §1

Src, sequence (P12931 whole entry): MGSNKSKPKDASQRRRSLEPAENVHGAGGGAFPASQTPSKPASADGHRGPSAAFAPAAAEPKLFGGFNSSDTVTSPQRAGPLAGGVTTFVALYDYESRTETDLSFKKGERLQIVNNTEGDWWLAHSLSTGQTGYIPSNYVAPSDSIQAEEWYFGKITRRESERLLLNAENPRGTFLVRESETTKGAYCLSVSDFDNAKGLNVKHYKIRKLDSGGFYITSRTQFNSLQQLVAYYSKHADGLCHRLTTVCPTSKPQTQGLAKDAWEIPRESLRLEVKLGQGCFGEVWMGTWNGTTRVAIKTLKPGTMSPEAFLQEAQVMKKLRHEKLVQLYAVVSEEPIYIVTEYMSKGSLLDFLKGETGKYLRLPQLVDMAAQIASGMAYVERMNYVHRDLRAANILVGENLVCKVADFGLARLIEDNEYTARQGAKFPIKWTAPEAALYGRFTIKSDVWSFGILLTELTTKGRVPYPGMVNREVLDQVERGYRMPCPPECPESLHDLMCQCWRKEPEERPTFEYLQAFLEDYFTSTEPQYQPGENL

SMILES: CN(C)c1ccc2c(c1)Oc1cc(N(C)C)ccc1C21OC(=O)c2cc(C(=O)NCCCC[C@@H](NC(=O)[C@@H](CCCNC(=N)N)NC(=O)[C@@H](CCCNC(=N)N)NC(=O)[C@@H](CCCNC(=N)N)NC(=O)[C@@H](CCCNC(=N)N)NC(=O)[C@@H](CCCNC(=N)N)NC(=O)[C@@H](CCCNC(=N)N)NC(=O)CCCCCNC(=O)[C@@H](CCCNC(=N)N)NC(=O)CCCCCNC(=O)c3ccc(-c4ccnc(N)n4)s3)C(N)=O)ccc21 [ARC-669]
- remaining activity at 1 µM (Src): 106%
- remaining activity at 1 µM (ZAP70): 82%
- remaining activity at 1 µM (RSK1): 2%
- remaining activity at 1 µM (PAK6): 35%
- remaining activity at 1 µM (MKK1): 69%
- remaining activity at 1 µM (TAK1): 13%
- remaining activity at 1 µM (PKD1): 37%
- remaining activity at 1 µM (ERK1): 114%
- remaining activity at 1 µM (JNK2): 85%
- remaining activity at 1 µM (TBK1): 27%
- remaining activity at 1 µM (PAK5): 18%
- remaining activity at 1 µM (PKBb): 4%
- remaining activity at 1 µM (MNK1): 74%
- remaining activity at 1 µM (MARK4): 86%
- remaining activity at 1 µM (MARK2): 77%
- remaining activity at 1 µM (GSK3b): 77%
- remaining activity at 1 µM (CAMK1): 3%
- remaining activity at 1 µM (IR): 52%
- remaining activity at 1 µM (PKA): 1%
- remaining activity at 1 µM (PIM2): 15%
- remaining activity at 1 µM (SRPK1): 66%
- remaining activity at 1 µM (S6K1): 4%
- remaining activity at 1 µM (CHK2): 28%
- remaining activity at 1 µM (CSK): 51%
- remaining activity at 1 µM (MLK3): 70%
- remaining activity at 1 µM (BTK): 36%
- remaining activity at 1 µM (Aurora A): 86%
- remaining activity at 1 µM (Aurora B): 81%
- remaining activity at 1 µM (CDK2-Cyclin A): 78%
- remaining activity at 1 µM (SGK1): 8%
- remaining activity at 1 µM (PAK4): 32%
- remaining activity at 1 µM (DYRK1A): 27%
- remaining activity at 1 µM (IRAK4): 82%
- remaining activity at 1 µM (BRSK2): 77%
- remaining activity at 1 µM (MST2): 94%
- remaining activity at 1 µM (ASK1): 74%
- remaining activity at 1 µM (IRR): 32%
- remaining activity at 1 µM (IKKe): 37%
- remaining activity at 1 µM (PKBa): 1%
- remaining activity at 1 µM (MNK2): 76%
- remaining activity at 1 µM (PKCγ): 13%
- remaining activity at 1 µM (RIPK2): 47%
